Here are results for 17 molecules from patent publication USRE47150 (Bayer, dated 2018).

The target of assay [1] is T1, human tissue factor pathway inhibitor (TFPI) (human, UniProt P10646 29-304, limits assumed).
T1 construct: bought; also called hTFPI; human TFPI
T1 sequence (looked up): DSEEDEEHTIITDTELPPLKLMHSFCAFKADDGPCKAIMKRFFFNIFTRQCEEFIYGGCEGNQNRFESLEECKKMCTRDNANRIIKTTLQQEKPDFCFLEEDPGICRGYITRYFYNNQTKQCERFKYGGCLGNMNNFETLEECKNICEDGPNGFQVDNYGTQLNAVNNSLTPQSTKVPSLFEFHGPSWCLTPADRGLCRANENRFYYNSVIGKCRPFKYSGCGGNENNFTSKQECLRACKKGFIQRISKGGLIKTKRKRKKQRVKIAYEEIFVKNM
Nature of the assay: competitive ELISA.

Assay [2] addresses T2, mouse tissue factor pathway inhibitor (TFPI) (mouse, UniProt O54819 29-289, limits assumed).
T2 construct: bought; also called mTFPI; murine TFPI
T2 sequence (looked up): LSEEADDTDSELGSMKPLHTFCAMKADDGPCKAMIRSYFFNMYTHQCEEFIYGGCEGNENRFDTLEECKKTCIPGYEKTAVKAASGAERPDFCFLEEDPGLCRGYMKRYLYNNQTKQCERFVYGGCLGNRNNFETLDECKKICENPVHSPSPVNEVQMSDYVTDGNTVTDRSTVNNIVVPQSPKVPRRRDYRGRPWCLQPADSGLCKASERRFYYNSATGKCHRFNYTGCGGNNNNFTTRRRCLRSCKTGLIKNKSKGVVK
In words: equilibrium ELISA.

B1: 4B7 HC_H103D (Fab, V domains shown)
VH: QVQLQQSGPGLVKPSQTLSLTCAISGDSVSSNSAAWSWIRQSPGRGLEWLGIIYKRSKWYNDYAVSVKSRITINPDTSKNQFSLQLNSVTPEDTAVYYCARWDSDKHWGFDYWGQGTLVTVSS
VL: DIVMTQSPLSLPVTPGEPASISCRSSQSLVFSDGNTYLNWYLQKPGQSPQLLIYKGSNRASGVPDRFSGSGSGTDFTLKISRVEAEDVGVYYCQQYDSYPLTFGQGTKVEIKR
B1: the variant/wild-type came out at 2.4 ratio in assay [1] and 12.9 ratio in assay [2].

B2: 4B7 HC_S30R HC_S57K (Fab, V domains shown)
VH: QVQLQQSGPGLVKPSQTLSLTCAISGDSVRSNSAAWSWIRQSPGRGLEWLGIIYKRKKWYNDYAVSVKSRITINPDTSKNQFSLQLNSVTPEDTAVYYCARWHSDKHWGFDYWGQGTLVTVSS
VL: DIVMTQSPLSLPVTPGEPASISCRSSQSLVFSDGNTYLNWYLQKPGQSPQLLIYKGSNRASGVPDRFSGSGSGTDFTLKISRVEAEDVGVYYCQQYDSYPLTFGQGTKVEIKR
B2: the variant/wild-type stood at 1.6 ratio in assay [1] and 6.6 ratio in assay [2].

B3: 4B7 HC_N32E (Fab, V domains shown)
VH: QVQLQQSGPGLVKPSQTLSLTCAISGDSVSSESAAWSWIRQSPGRGLEWLGIIYKRSKWYNDYAVSVKSRITINPDTSKNQFSLQLNSVTPEDTAVYYCARWHSDKHWGFDYWGQGTLVTVSS
VL: DIVMTQSPLSLPVTPGEPASISCRSSQSLVFSDGNTYLNWYLQKPGQSPQLLIYKGSNRASGVPDRFSGSGSGTDFTLKISRVEAEDVGVYYCQQYDSYPLTFGQGTKVEIKR
Take B3: the variant/wild-type in assay [1] worked out at 3.2 ratio; in assay [2], 2.1 ratio.

B4: 4B7 HC_K58M HC_D62N (Fab, V domains shown)
VH: QVQLQQSGPGLVKPSQTLSLTCAISGDSVSSNSAAWSWIRQSPGRGLEWLGIIYKRSMWYNNYAVSVKSRITINPDTSKNQFSLQLNSVTPEDTAVYYCARWHSDKHWGFDYWGQGTLVTVSS
VL: DIVMTQSPLSLPVTPGEPASISCRSSQSLVFSDGNTYLNWYLQKPGQSPQLLIYKGSNRASGVPDRFSGSGSGTDFTLKISRVEAEDVGVYYCQQYDSYPLTFGQGTKVEIKR
For B4, the variant/wild-type in assay [1] was found to be 6.6 ratio; in assay [2], 15.2 ratio.

B5: 4B7 LC_D97M (Fab, V domains shown)
VH: QVQLQQSGPGLVKPSQTLSLTCAISGDSVSSNSAAWSWIRQSPGRGLEWLGIIYKRSKWYNDYAVSVKSRITINPDTSKNQFSLQLNSVTPEDTAVYYCARWHSDKHWGFDYWGQGTLVTVSS
VL: DIVMTQSPLSLPVTPGEPASISCRSSQSLVFSDGNTYLNWYLQKPGQSPQLLIYKGSNRASGVPDRFSGSGSGTDFTLKISRVEAEDVGVYYCQQYMSYPLTFGQGTKVEIKR
Take B5: the variant/wild-type came out at 2.4 ratio in assay [1] and 1.3 ratio in assay [2].

B6: 4B7 HC_N32D (Fab, V domains shown)
VH: QVQLQQSGPGLVKPSQTLSLTCAISGDSVSSDSAAWSWIRQSPGRGLEWLGIIYKRSKWYNDYAVSVKSRITINPDTSKNQFSLQLNSVTPEDTAVYYCARWHSDKHWGFDYWGQGTLVTVSS
VL: DIVMTQSPLSLPVTPGEPASISCRSSQSLVFSDGNTYLNWYLQKPGQSPQLLIYKGSNRASGVPDRFSGSGSGTDFTLKISRVEAEDVGVYYCQQYDSYPLTFGQGTKVEIKR
Take B6: the figures for the variant/wild-type in assay [1] and in assay [2] were 3.8 ratio and 6 ratio, respectively.

B7: 4B7 HC_H103G (Fab, V domains shown)
VH: QVQLQQSGPGLVKPSQTLSLTCAISGDSVSSNSAAWSWIRQSPGRGLEWLGIIYKRSKWYNDYAVSVKSRITINPDTSKNQFSLQLNSVTPEDTAVYYCARWGSDKHWGFDYWGQGTLVTVSS
VL: DIVMTQSPLSLPVTPGEPASISCRSSQSLVFSDGNTYLNWYLQKPGQSPQLLIYKGSNRASGVPDRFSGSGSGTDFTLKISRVEAEDVGVYYCQQYDSYPLTFGQGTKVEIKR
Turning to B7, the variant/wild-type turned out to be 1.4 ratio in assay [1] and 10.7 ratio in assay [2].

B8: 4B7 HC_N61G (Fab, V domains shown)
VH: QVQLQQSGPGLVKPSQTLSLTCAISGDSVSSNSAAWSWIRQSPGRGLEWLGIIYKRSKWYGDYAVSVKSRITINPDTSKNQFSLQLNSVTPEDTAVYYCARWHSDKHWGFDYWGQGTLVTVSS
VL: DIVMTQSPLSLPVTPGEPASISCRSSQSLVFSDGNTYLNWYLQKPGQSPQLLIYKGSNRASGVPDRFSGSGSGTDFTLKISRVEAEDVGVYYCQQYDSYPLTFGQGTKVEIKR
With B8, the results for the variant/wild-type in assay [1] and in assay [2] were 2.2 ratio and 1.4 ratio, respectively.

B9: 4B7 HC_H107M LC_F31I (Fab, V domains shown)
VH: QVQLQQSGPGLVKPSQTLSLTCAISGDSVSSNSAAWSWIRQSPGRGLEWLGIIYKRSKWYNDYAVSVKSRITINPDTSKNQFSLQLNSVTPEDTAVYYCARWHSDKMWGFDYWGQGTLVTVSS
VL: DIVMTQSPLSLPVTPGEPASISCRSSQSLVISDGNTYLNWYLQKPGQSPQLLIYKGSNRASGVPDRFSGSGSGTDFTLKISRVEAEDVGVYYCQQYDSYPLTFGQGTKVEIKR
As for B9, the variant/wild-type in assay [1] is 1.7 ratio; in assay [2], 9.2 ratio.

B10: 4B7 LC_D33F (Fab, V domains shown)
VH: QVQLQQSGPGLVKPSQTLSLTCAISGDSVSSNSAAWSWIRQSPGRGLEWLGIIYKRSKWYNDYAVSVKSRITINPDTSKNQFSLQLNSVTPEDTAVYYCARWHSDKHWGFDYWGQGTLVTVSS
VL: DIVMTQSPLSLPVTPGEPASISCRSSQSLVFSFGNTYLNWYLQKPGQSPQLLIYKGSNRASGVPDRFSGSGSGTDFTLKISRVEAEDVGVYYCQQYDSYPLTFGQGTKVEIKR
Consider B10, for which the variant/wild-type in assay [1] was determined as 5.3 ratio; in assay [2], 7 ratio.

B11: 4B7 LC_D33F LC_Y54F (Fab, V domains shown)
VH: QVQLQQSGPGLVKPSQTLSLTCAISGDSVSSNSAAWSWIRQSPGRGLEWLGIIYKRSKWYNDYAVSVKSRITINPDTSKNQFSLQLNSVTPEDTAVYYCARWHSDKHWGFDYWGQGTLVTVSS
VL: DIVMTQSPLSLPVTPGEPASISCRSSQSLVFSFGNTYLNWYLQKPGQSPQLLIFKGSNRASGVPDRFSGSGSGTDFTLKISRVEAEDVGVYYCQQYDSYPLTFGQGTKVEIKR
Take B11: the variant/wild-type was 4.3 ratio in assay [1] and 7.9 ratio in assay [2].

B12: 4B7 HC_Y112D (Fab, V domains shown)
VH: QVQLQQSGPGLVKPSQTLSLTCAISGDSVSSNSAAWSWIRQSPGRGLEWLGIIYKRSKWYNDYAVSVKSRITINPDTSKNQFSLQLNSVTPEDTAVYYCARWHSDKHWGFDDWGQGTLVTVSS
VL: DIVMTQSPLSLPVTPGEPASISCRSSQSLVFSDGNTYLNWYLQKPGQSPQLLIYKGSNRASGVPDRFSGSGSGTDFTLKISRVEAEDVGVYYCQQYDSYPLTFGQGTKVEIKR
As for B12, the variant/wild-type in assay [1] was 2.9 ratio; in assay [2] it was 5.7 ratio.

B13: 4B7 LC_D33R (Fab, V domains shown)
VH: QVQLQQSGPGLVKPSQTLSLTCAISGDSVSSNSAAWSWIRQSPGRGLEWLGIIYKRSKWYNDYAVSVKSRITINPDTSKNQFSLQLNSVTPEDTAVYYCARWHSDKHWGFDYWGQGTLVTVSS
VL: DIVMTQSPLSLPVTPGEPASISCRSSQSLVFSRGNTYLNWYLQKPGQSPQLLIYKGSNRASGVPDRFSGSGSGTDFTLKISRVEAEDVGVYYCQQYDSYPLTFGQGTKVEIKR
For B13, the variant/wild-type in assay [1] amounted to 3.6 ratio; in assay [2], 7.2 ratio.

B14: 4B7 HC_H107M (Fab, V domains shown)
VH: QVQLQQSGPGLVKPSQTLSLTCAISGDSVSSNSAAWSWIRQSPGRGLEWLGIIYKRSKWYNDYAVSVKSRITINPDTSKNQFSLQLNSVTPEDTAVYYCARWHSDKMWGFDYWGQGTLVTVSS
VL: DIVMTQSPLSLPVTPGEPASISCRSSQSLVFSDGNTYLNWYLQKPGQSPQLLIYKGSNRASGVPDRFSGSGSGTDFTLKISRVEAEDVGVYYCQQYDSYPLTFGQGTKVEIKR
As for B14, the variant/wild-type in assay [1] turned out to be 8.1 ratio; in assay [2], 5.6 ratio.

B15: 4B7 HC_S57K (Fab, V domains shown)
VH: QVQLQQSGPGLVKPSQTLSLTCAISGDSVSSNSAAWSWIRQSPGRGLEWLGIIYKRKKWYNDYAVSVKSRITINPDTSKNQFSLQLNSVTPEDTAVYYCARWHSDKHWGFDYWGQGTLVTVSS
VL: DIVMTQSPLSLPVTPGEPASISCRSSQSLVFSDGNTYLNWYLQKPGQSPQLLIYKGSNRASGVPDRFSGSGSGTDFTLKISRVEAEDVGVYYCQQYDSYPLTFGQGTKVEIKR
Consider B15, for which the results for the variant/wild-type in assay [1] and in assay [2] were 1.7 ratio and 6.5 ratio, respectively.

B16: 4B7 HC_S33G (Fab, V domains shown)
VH: QVQLQQSGPGLVKPSQTLSLTCAISGDSVSSNGAAWSWIRQSPGRGLEWLGIIYKRSKWYNDYAVSVKSRITINPDTSKNQFSLQLNSVTPEDTAVYYCARWHSDKHWGFDYWGQGTLVTVSS
VL: DIVMTQSPLSLPVTPGEPASISCRSSQSLVFSDGNTYLNWYLQKPGQSPQLLIYKGSNRASGVPDRFSGSGSGTDFTLKISRVEAEDVGVYYCQQYDSYPLTFGQGTKVEIKR
As for B16, the variant/wild-type in assay [1] stood at 1.5 ratio; in assay [2], 6.5 ratio.

B17: 4B7 HC_N61G HC_D62V (Fab, V domains shown)
VH: QVQLQQSGPGLVKPSQTLSLTCAISGDSVSSNSAAWSWIRQSPGRGLEWLGIIYKRSKWYGVYAVSVKSRITINPDTSKNQFSLQLNSVTPEDTAVYYCARWHSDKHWGFDYWGQGTLVTVSS
VL: DIVMTQSPLSLPVTPGEPASISCRSSQSLVFSDGNTYLNWYLQKPGQSPQLLIYKGSNRASGVPDRFSGSGSGTDFTLKISRVEAEDVGVYYCQQYDSYPLTFGQGTKVEIKR
Take B17: the variant/wild-type in assay [1] worked out at 8 ratio; in assay [2], 31.1 ratio.
